Source: patent US20130323281A1

Biological target: human TLR5 on HEK-Blue-hTLR5 cells (human) (UniProt O60602)
Test: cell-based or functional assay

UniProt O60602, sequence (O60602 21-858): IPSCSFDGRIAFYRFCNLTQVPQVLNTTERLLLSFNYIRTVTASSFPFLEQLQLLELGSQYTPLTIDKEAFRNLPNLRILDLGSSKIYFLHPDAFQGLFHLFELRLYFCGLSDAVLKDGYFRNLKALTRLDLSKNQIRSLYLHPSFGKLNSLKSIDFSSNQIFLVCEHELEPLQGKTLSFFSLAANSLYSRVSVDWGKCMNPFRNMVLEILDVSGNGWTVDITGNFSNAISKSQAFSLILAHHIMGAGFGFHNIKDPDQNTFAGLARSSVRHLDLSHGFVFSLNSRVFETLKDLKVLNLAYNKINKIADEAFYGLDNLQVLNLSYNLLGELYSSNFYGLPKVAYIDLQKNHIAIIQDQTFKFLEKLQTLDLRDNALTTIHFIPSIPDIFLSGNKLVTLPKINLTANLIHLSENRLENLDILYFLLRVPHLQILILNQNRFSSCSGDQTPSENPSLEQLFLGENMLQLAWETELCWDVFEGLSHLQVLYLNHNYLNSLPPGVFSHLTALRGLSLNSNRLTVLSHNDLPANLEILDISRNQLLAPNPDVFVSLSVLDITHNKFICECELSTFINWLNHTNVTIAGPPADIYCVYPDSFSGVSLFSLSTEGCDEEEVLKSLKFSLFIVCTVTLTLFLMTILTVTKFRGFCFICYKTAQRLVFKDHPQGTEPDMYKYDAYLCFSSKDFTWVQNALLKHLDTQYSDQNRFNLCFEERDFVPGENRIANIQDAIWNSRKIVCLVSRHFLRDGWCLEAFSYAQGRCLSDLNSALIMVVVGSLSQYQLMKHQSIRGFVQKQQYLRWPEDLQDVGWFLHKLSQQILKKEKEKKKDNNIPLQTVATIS

Substance: flagellin (fliC gene product) from Salmonella typhimurium SL1344, wild-type, produced by cell-free protein synthesis (from UniProt P06179 2-495) (ligand)
- EC50 in flagellin bioactivity assay (SEAP reporter, HEK-Blue-hTLR5 cells): 2.4 pM
- bioactivity assay (SEAP reporter, HEK-Blue-hTLR5 cells), given as 'affinity': 6 pM

Substance: flagellin (G239HPG, M310I, M466I) conjugated to Hepatitis B core (HBc) VLP by azide-alkyne click reaction
- flagellin bioactivity (SEAP reporter, HEK-Blue-hTLR5 cells), fold against free flagellin: 10 fold

Substance: flagellin Mutation III (M1HPG, Ala2Ile, M310I, M466I) conjugated to Hepatitis B core (HBc) VLP
- bioactivity assay (SEAP reporter, HEK-Blue-hTLR5 cells), fold against free flagellin: 5 fold
